The record followed here is US20210206856A1 (PANDION OPERATIONS, published 2021).

Positions count from the first letter of the chain named.

T1: human MAdCAM expressed on cells (human, UniProt Q13477 19-382)
T1 construct: whole, on cells; also called MADCAM1
T1 sequence (looked up): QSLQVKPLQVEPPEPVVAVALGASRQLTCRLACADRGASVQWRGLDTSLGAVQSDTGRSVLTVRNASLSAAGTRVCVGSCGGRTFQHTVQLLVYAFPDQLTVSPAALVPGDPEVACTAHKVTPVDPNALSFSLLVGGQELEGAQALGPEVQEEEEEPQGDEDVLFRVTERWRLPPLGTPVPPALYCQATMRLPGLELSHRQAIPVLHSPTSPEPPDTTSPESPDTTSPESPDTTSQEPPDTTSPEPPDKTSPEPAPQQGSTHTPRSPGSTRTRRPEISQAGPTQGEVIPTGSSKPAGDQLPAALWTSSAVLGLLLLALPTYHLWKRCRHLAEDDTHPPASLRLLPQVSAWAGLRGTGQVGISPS

T2: mouse MAdCAM expressed on cells (mouse, UniProt Q61826 22-405)
T2 construct: whole, on cells
T2 sequence (looked up): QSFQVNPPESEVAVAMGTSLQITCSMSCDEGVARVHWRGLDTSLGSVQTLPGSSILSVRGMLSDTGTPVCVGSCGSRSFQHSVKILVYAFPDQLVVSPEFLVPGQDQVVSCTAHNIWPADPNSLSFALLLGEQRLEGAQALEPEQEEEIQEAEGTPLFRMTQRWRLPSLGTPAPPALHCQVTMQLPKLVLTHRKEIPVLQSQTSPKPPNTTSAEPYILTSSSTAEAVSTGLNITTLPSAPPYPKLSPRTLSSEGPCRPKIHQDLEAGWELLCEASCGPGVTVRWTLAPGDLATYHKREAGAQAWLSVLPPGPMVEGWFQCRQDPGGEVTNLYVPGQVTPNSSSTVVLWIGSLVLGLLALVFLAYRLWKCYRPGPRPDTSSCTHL

B1: MAdCAM Antibody Table 2 Clone 18 (antibody, human IgG1, V domains shown)
VH: QVQLVQSGAEVKKPGSSVKVSCKASGYTFTNYYMHWVRQAPGQGLEWMGGIIPIVDRVKYAQKFQGRVTITADESTSTAYMELSSLRSEDTAVYYCAKGRYTVNYYYGMDVWGQGTTVTVSS
VL: DIQMTQSPSSLSASVGDRVTITCQANQDISNYLNWYQQKPGKAPKLLIYRASKLEAGVPSRFSGSGSGTDFTLTISSLQPEDFATYYCQQSSEIPYSFGQGTKLEIK
B2: MAdCAM Antibody Table 2 Clone 10 (antibody, human IgG1, V domains shown)
VH: EVQLLESGGGLVQPGGSLRLSCAASGFMFGDYAMHWVRQAPGKGLEWVSAISGSGGSTYYADSVKGRFTISRDNSKNTLYLQMNSLRAEDTAVYYCAKDLVVAGIWYFDLWGRGTLVTVSS
VL: DIQMTQSPSSLSASVGDRVTITCRASQGISNNLNWYQQKPGKAPKLLIYDASSLESGVPSRFSGSGSGTDFTLTISSLQPEDFATYYCQQTHSFPSTFGQGTKLEIK
B3: MAdCAM Antibody Table 2 Clone 26 (antibody, V domains shown)
VH: EVQLLESGGGLVQPGGSLRLSCAASGFTFSSYAMSWVRQAPGKGLEWVSYISSSSTYTNYADSVKGRFTISRDNSKNTLYLQMNSLRAEDTAVYYCARANSSSWYDWYFDLWGQGTLVTVSS
VL: not shown
B4: MAdCAM Antibody Table 2 Clone 15 (antibody, human IgG1, V domains shown)
VH: QVQLVQSGAEVKKPGASVKVSCKASGYTFTGYYMHWVRQAPGQGLEWMGWIGPNSGDTNYAQKFQGRVTMTRDTSTSTVYMELSSLRSEDTAVYYCARDLDHNWYFDLWGRGTLVTVSS
VL: DIVMTQSPLSLPVTPGEPASISCRSSQSLLHSNGYNYLDWYLQKPGQSPQLLIYSSSNRAPGVPDRFSGSGSGTDFTLKISRVEAEDVGVYYCMQALHIPLTFGGGTKVEIK
B5: MAdCAM Antibody Table 2 Clone 7 (antibody, human IgG1, V domains shown)
VH: EVQLLESGGGLVQPGGSLRLSCAASGFTFSDYQMSWVRQAPGKGLEWVAIISHADGGFKDYADSVKGRFTISRDNSKNTLYLQMNSLRAEDTAVYYCAKPYSSGWSAVYYFDYWGQGTLVTVSS
VL: DIQMTQSPSSLSASVGDRVTITCRASRGITNDLGWYQQKPGKAPKLLIYAASTLQSGVPSRFSGSGSGTDFTLTISSLQPEDFATYYCQQAYSFPWTFGQGTKVEIK
B6: MAdCAM Antibody Table 2 Clone 13 (antibody, human IgG1, V domains shown)
VH: QVQLVQSGAEVKKPGASVKVSCKASGYTFTTYYMHWVRQAPGQGLEWMGGFDPEDGETIYAQKFQGRVTMTRDTSTSTVYMELSSLRSEDTAVYYCARHAVAGAVGAGYYYYGMDVWGQGTMVTVSS
VL: B5 VL with R27E, G28S, T30S, D32W, G34A, A91S, F94V, W96F, Q100P, E105D
B7: MAdCAM Antibody Table 2 Clone 21 (antibody, human IgG1, V domains shown)
VH: EVQLVESGGGLVKPGGSLRLSCAASGFTFSSYWMSWVRQAPGKGLEWVSYISGDSGYTNYAAPVKGRFTISRDDSKNTLYLQMNSLKTEDTAVYYCARANSSGWYDWYFDLWGRGTLVTVSS
VL: not shown
B8: MAdCAM Antibody Table 2 Clone 1 (antibody, human IgG1, V domains shown)
VH: EVQLLESGGGLVQPGGSLRLSCAASGFTFSSYGMHWVRQAPGKGLEWVAVISDDGSDKYYADSVKGRFTISRDNSKNTLYLQMNSLRAEDTAVYYCTTSKYYYYYGMDVWGQGTTVTVSS
VL: DIQMTQSPSSLSASVGDRVTITCQASQDISKSLNWYQQKPGKAPKLLIYAASSLQSGVPSRFSGSGSGTDFTLTISSLQPEDFATYYCQQGYSTPLTFGGGTKVEIK
B9: MAdCAM Antibody Table 2 Clone 16 (antibody, human IgG1, V domains shown)
VH: EVQLLESGGGLVQPGGSLRLSCAASGFTFDDYAMHWVRQAPGKGLEWVSYIDASGTTIYYADSVKGRFTISRDNSKNTLYLQMNSLRAEDTAVYYCAKDQAAAGYWYFDLWGRGTLVTVSS
VL: B1 VL with N26S, R50K, K53T, A56S, S92Y, E93S, I94T, Y96I, S97T, K103R
B10: MAdCAM Antibody Table 2 Clone 8 (antibody, human IgG1, V domains shown)
VH: QVQLVQSGAEVKKPGASVKVSCKASGYTFTGYHIHWVRQAPGQGLEWMGIINPSGGSTIYAQKFQGRVTMTRDTSTSTVYMELSSLRSEDTAVYYCAKDWSSWYLGPFDYWGQGTLVTVSS
VL: B8 VL with Q24R, D28N, K31S, G91S, S93T, L96Y, G100Q
B11: MAdCAM Antibody Table 2 Clone 12 (antibody, human IgG1, V domains shown)
VH: QVQLVQSGAEVKKPGASVKVSCKASGYTLTTWYMYWVRQAPGQGLEWMGWINPNRGATNYAQKFQGRVTMTRDTSTSTVYMELSSLRSEDTAVYYCAKGDLWGAMDVWGQGTLVTVSS
VL: B8 VL with Q24R, Q27D, D28N, S30G, K31S, S32W, N34A, L96P, G100Q
B12: MAdCAM Antibody Table 2 Clone 11 (antibody, human IgG1, V domains shown)
VH: EVQLLESGGGLVQPGGSLRLSCAASGFTFSDYYMNWVRQAPGKGLEWVSVIGESGGSTYYADSVKGRFTISRDNSKNTLYLQMNSLRAEDTAVYYCAADPVSRWPKHGGGDYWGQGTLVTVSS
VL: B5 VL with R27Q, T30S, N31S, D32S, G34A, A91S, F94T
B13: MAdCAM Antibody Table 2 Clone 25 (antibody, human IgG1, V domains shown)
VH: EVQLLESGGGLVQPGGSLRLSCAASGFTFSNAWMSWVRQAPGKGLEWVSTIVGNGGATYYADSVKGRFTISRDNSKNTLYLQMNSLRAEDTAVYYCARDNPLRWQGMDVWGQGTLVTVSS
VL: B8 VL with Q24R, K31N, S32Y, G91S, T94I, L96P, G100P, E105D
B14: MAdCAM Antibody Table 2 Clone 33 (antibody, human IgG1, V domains shown)
VH: B11 VH with L113T
VL: B8 VL with Q24R, Q27D, D28N, S30G, K31S, S32W, N34A, L96P, G100Q
B15: MAdCAM Antibody Table 2 Clone 19 (antibody, human IgG1, V domains shown)
VH: EVQLLESGGGLVQPGGSLRLSCAASGFTFEDYAMHWVRQAPGKGLEWVSYLNSDGGSTSYADSVKGRFTISRDNSKNTLYLQMNSLRAEDTAVYYCAKDYCTNGVCAFDYWGQGTLVTVSS
VL: DIQMTQSPSSLSASVGDRVTITCRASQSISTYLNWYQQKPGKAPKLLIYDASNLETGVPSRFSGSGSGTDFTLTISSLQPEDFATYYCQQSYTIPITFGQGTRLEIK
B16: MAdCAM Antibody Table 2 Clone 30 (antibody, human IgG1, V domains shown)
VH: EVQLLESGGGLVQPGGSLRLSCAASGFTFSSYAMHWVRQAPGKGLEWVSGISGSGGSAYYADSVKGRFTISRDNSKNTLYLQMNSLRAEDTAVYYCATSQAPVDYYYYGMDVWGQGTTVTVSS
VL: B15 VL with T31S, Y32W, N34A, D50A, E55Q, T56R, T93S, R103K, L104V
B17: MAdCAM Antibody Table 2 Clone 27 (antibody, V domains shown)
VH: B3 VH with A33Q
VL: not shown
B18: MAdCAM Antibody Table 2 Clone 9 (antibody, human IgG1, V domains shown)
VH: QVQLVQSGAEVKKPGASVKVSCKASGYTFTSYYMHWVRQAPGQGLEWMGIINHSGGSTSYAQKFQGRVTMTRDTSTSTVYMELSSLRSEDTAVYYCARPYSGWYFAFDIWGQGTLVTVSS
VL: not shown
B19: MAdCAM Antibody Table 2 Clone 32 (antibody, human IgG1, V domains shown)
VH: B11 VH
VL: B8 VL with Q24R, Q27D, D28N, S30G, K31S, S32W, N34A, L96P, G100Q
B20: MAdCAM Antibody Table 2 Clone 35 (antibody, human IgG1, V domains shown)
VH: QVQLVQSGAEVKKPGASVKVSCKASGYTFTGYYIHWVRQAPGQGLEWMGWMNPNSGNTGYAQKFQGRVTMTRDTSTSTVYMELSSLRSEDTAVYYCARDPGFLGYSSGGSSYDGWFDPWGQGTLVTVSS
VL: B15 VL with T31S, N34H, D50A, N53S, E55Q, T56S, I94A, I96Y, R103K

For the first assay, the target named is T1, human MAdCAM expressed on cells. The assay is described as follows: cell binding.
Turning to B1, the binding result was “binds”.
Still for that read-out and setting: then B2, with “binds”.
Same read-out and setting: for B3 the value was “binds”; for B4, “binds”.
Same read-out and setting: for B5 the value was “binds”.
As to B6, the binding result is “binds”.
On the same count and under the same terms, for B7 the value was “binds”.
As to B8, the binding result was “binds”.
As to B9, the binding result was “binds”.
The same measure, in the same setting: for B10 the value was “binds”.
The same measure, in the same setting: for B11 the value was “binds”; for B12, “binds”; for B13, “binds”.
Same read-out and setting: for B14 the value was “binds”; for B15, “binds”.
Consider B16, for which the binding result is on record as “binds”.

A further assay concerns the target T2, mouse MAdCAM expressed on cells. The assay can be described thus: cell binding.
Turning to B1, the binding result is “no binding”.
On the same count and under the same terms, for B2 the value was “binds”; for B3, “no binding”; for B17, “no binding”.
On the same count and under the same terms, then B4, with “no binding”.
As for B5, the binding result is reported as “binds”.
Still for that read-out and setting: for B6 the value was “no binding”; for B18, “no binding”; for B7, “no binding”.
Same read-out and setting: then B8, with “binds”; and B19, with “no binding”; and B9, with “no binding”.
Same read-out and setting: for B10 the value was “binds”.
For B11, the binding result is recorded as “no binding”.
As for B12, the binding result is listed as “binds”.
Still for that read-out and setting: then B13, with “no binding”; and B14, with “no binding”.
On to B15, for which the binding result is on record as “no binding”.
In the case of B16, the binding result is “binds”.
With B20, the binding result is reported as “no binding”.
